Broadly, the Kd is the constant that tells how readily two partners part at equilibrium. Lower therefore signals a tighter complex.

Experimental findings from patent US20120100141A1 (GlaxoSmithKline, published 2012) are described below.

Assay [1] concerns the target T1, Exendin 4-DOM7h-14 dAb fusion (DAT0116).
T1 construct: also called Exendin 4 DOM7h-14 fusion
Kind of assay: 6CRE-luciferase reporter in CHO cells with human GLP-1R (called GLP-1R binding assay).

Assay [2] addresses T2, Exendin 4 (G4S linker)3 DOM7h-14 dAb fusion (DAT0115).
T2 construct: also called Exendin 4 (G4S)3 DOM7h-14 fusion
The description is as above.

Assay [3] deals with T3, Exendin 4, helical linker, DOM7h-14 dAb fusion (DAT0117).
T3 construct: also called Exendin 4, helical linker, DOM7h-14 fusion
The description is as above.

For assay [4], the target named is T4, Exendin 4, (G4S)3, linker DOM7h-14-10 fusion (DMS7139).
T4 construct: expressed in E. coli with a cleaved OmpT AWA leader; also called DSM7139
The assay can be described thus: melanophore functional GLP-1R bioassay.

Assay [5] has as its target Mouse serum albumin (MSA) (mouse, UniProt P07724 25-608). Kind of assay: SPR (Biacore), albumin on CM5 chip, fusion in flow. Background: SPR reads the build-up and loss of mass on a sensor chip optically.
Protocol: (§1) The analysis was performed using a CM5 Biacore chip (carboxymethylated dextran matrix) that was coated with serum albumin. About 1000 resonance units (RUs) of each serum albumin to be tested (human, rat and mouse serum albumin) was immobilised in acetate buffer pH 5.5. […] Each fusion molecule tested was expressed in mammalian tissue culture as described in the example above.
(§2) Affinity (KD) was calculated from the BIACORE traces by fitting on-rate and off-rate curves to traces generated by concentrations of dAb in the region of the KD.
The next assay has as its target Rat serum albumin (RSA) (rat, UniProt P02770 25-608). The assay can be described thus: SPR (Biacore), albumin on CM5 chip, fusion in flow.
For assay [6], the target named is Human serum albumin (HSA) (human, UniProt P02768 25-609). The assay can be described thus: SPR (Biacore), albumin on CM5 chip, fusion in flow.
Protocol: as §1, §2

Chain of Mouse serum albumin (MSA) (P07724 25-608 limits assumed): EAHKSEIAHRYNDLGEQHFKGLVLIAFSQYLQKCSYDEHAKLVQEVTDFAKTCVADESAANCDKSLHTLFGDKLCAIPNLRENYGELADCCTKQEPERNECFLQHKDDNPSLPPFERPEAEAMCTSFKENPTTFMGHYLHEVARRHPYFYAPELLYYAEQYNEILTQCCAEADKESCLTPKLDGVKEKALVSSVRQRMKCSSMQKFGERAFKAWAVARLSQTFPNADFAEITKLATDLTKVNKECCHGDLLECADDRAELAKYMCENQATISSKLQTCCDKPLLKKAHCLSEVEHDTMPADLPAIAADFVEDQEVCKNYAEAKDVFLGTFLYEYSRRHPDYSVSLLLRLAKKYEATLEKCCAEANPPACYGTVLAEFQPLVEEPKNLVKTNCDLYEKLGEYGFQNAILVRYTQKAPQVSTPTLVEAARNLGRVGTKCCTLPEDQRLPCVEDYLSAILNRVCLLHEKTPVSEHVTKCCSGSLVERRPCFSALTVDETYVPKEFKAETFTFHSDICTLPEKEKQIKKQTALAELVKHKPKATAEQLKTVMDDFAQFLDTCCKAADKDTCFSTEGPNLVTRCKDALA
Protocol for Rat serum albumin (RSA): as §1, §2

B1: Human GLP-1 receptor (receptor, UniProt P43220 24-463, looked up)
chain: RPQGATVSLWETVQKWREYRRQCQRSLTEDPPPATDLFCNRTFDEYACWPDGEPGSFVNVSCPWYLPWASSVPQGHVYRFCTAEGLWLQKDNSSLPWRDLSECEESKRGERSSPEEQLLFLYIIYTVGYALSFSALVIASAILLGFRHLHCTRNYIHLNLFASFILRALSVFIKDAALKWMYSTAAQQHQWDGLLSYQDSLSCRLVFLLMQYCVAANYYWLLVEGVYLYTLLAFSVLSEQWIFRLYVSIGWGVPLLFVVPWGIVKYLYEDEGCWTRNSNMNYWLIIRLPILFAIGVNFLIFVRVICIVVSKLKANLMCKTDIKCRLAKSTLTLIPLLGTHEVIFAFVMDEHARGTLRFIKLFTELSFTSFQGLMVAILYCFVNNEVQLEFRKSWERWRLEHLHIQRDSSMKPLKCPTSSLSSGATAGSSMYTATCQASCS
notes: whole, on cells
As for B1, the binding result in assay [1], in assay [2], in assay [3] and in assay [4] was “binds” throughout.

B2: 2xGLP-1 (7-37) A8G DOM7h-14 dAb fusion (DAT0114) (other)
chain: HGEGTFTSDVSSYLEGQAAKEFIAWLVKGRHGEGTFTSDVSSYLEGQAAKEFIAWLVKGRDIQMTQSPSSLSASVGDRVTITCRASQWIGSQLSWYQQKPGKAPKLLIMWRSSLQSGVPSRFSGSGSGTDFTLTISSLQPEDFATYYCAQGAALPRTFGQGTKVEIKR
notes: expressed in HEK293E cells, purified on protein L; also called 2xGLP-1 (7-37) A8G DOM7h-14 fusion
Turning to B2, the dissociation constant Kd in assay [5] was found to be 130 nM; with Rat serum albumin (RSA) it was 700 nM; in assay [6], 150 nM.

B3: GLP-1 (7-37) A8G, helical linker, DOM7h-14 dAb fusion (DAT0120) (other)
chain: HGEGTFTSDVSSYLEGQAAKEFIAWLVKGRGKEAAAKEAAAKEAAAKELAAKEAAAKEAAAKEAAAKELAADIQMTQSPSSLSASVGDRVTITCRASQWIGSQLSWYQQKPGKAPKLLIMWRSSLQSGVPSRFSGSGSGTDFTLTISSLQPEDFATYYCAQGAALPRTFGQGTKVEIKR
notes: Single-chain genetic fusion of GLP-1 (7-37) A8G, helical linker and DOM7h-14; also called GLP-1 (7-37) A8G, helical linker, DOM7h-14 fusion; GLP-1 A8G, helical linker, DOM7h-14 fusion
In the case of B3, the equilibrium dissociation constant (Kd) was 110 nM in assay [5], 800 nM with Rat serum albumin (RSA) and 110 nM in assay [6].
